Measured values published in US20030022853A1.

Legend:
[1] = target: pure human c-JUN protein (full length, Promega) (human) (UniProt P05412); assay: laser fluorescence quenching assay, 1 µg antibody + 1 µg c-JUN + 0.075 pmole JD1F/2F, 50 mM NaCl (c-JUN:DNA alone 25%)
[2] = target: pure human c-JUN protein (full length, Promega) (human) (UniProt P05412); assay: laser fluorescence quenching assay, 750 ng antibody + 250 ng c-JUN + 0.075 pmole JD1F/2F, 50 mM NaCl (c-JUN:DNA alone 11%)
[3] = target: pure human c-JUN protein (full length, Promega) (human) (UniProt P05412); assay: laser fluorescence quenching assay, 5 µg antibody + 1 µg c-JUN + 0.075 pmole JD1F/2F, 50 mM NaCl (c-JUN:DNA alone 25%)
[4] = target: pure human c-JUN protein (full length, Promega) (human) (UniProt P05412); assay: laser fluorescence quenching assay, 750 ng antibody + 250 ng c-JUN + 0.075 pmole JD1F/2F, 50 mM NaCl
[5] = target: pure human c-JUN protein (full length, Promega) (human) (UniProt P05412); assay: laser fluorescence quenching assay, 5 µg antibody + 1 µg c-JUN + 0.075 pmole JD1F/2F, 50 mM NaCl
[6] = target: pure human c-JUN protein (full length, Promega) (human) (UniProt P05412); assay: laser fluorescence quenching assay, 1 µg antibody + 1 µg c-JUN + 0.075 pmole JD1F/2F, 50 mM NaCl

Sequence of UniProt P05412 (P05412 whole entry): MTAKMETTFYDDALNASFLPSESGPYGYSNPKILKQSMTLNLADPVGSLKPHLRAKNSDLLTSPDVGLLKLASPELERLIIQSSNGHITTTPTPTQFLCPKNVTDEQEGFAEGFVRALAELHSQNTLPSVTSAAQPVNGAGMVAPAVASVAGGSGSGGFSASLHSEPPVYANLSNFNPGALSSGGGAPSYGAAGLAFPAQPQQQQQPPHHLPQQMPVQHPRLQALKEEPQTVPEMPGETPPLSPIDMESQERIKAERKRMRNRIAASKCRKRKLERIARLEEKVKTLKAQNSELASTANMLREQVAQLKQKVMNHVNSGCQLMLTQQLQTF

- decrease in fluorescent intensity compared to DNA alone [1]: 37%
- decrease in fluorescent intensity compared to DNA alone [2]: 27%
- decrease in fluorescent intensity compared to DNA alone [3]: 42%
- further decrease in fluorescent intensity from the c-JUN:DNA complex [4]: 16%
- further decrease in fluorescent intensity from the c-JUN:DNA complex [5]: 17%
- further decrease in fluorescent intensity from the c-JUN:DNA complex [6]: 12%
Substance: monoclonal IgG1 antibody, c-JUN (KM-1) (Santa Cruz Biotechnology)
